# Assay results reported in patent US11932673.
# Legend:
# trypsin [1] = experiment: Fab TRF, 0.6 ug/mL Fab
# trypsin [2] = experiment: Fab TRF, 2.4 ug/mL Fab
# trypsin [3] = experiment: monoclonal phage TRF
# trypsin [4] = experiment: Fab TRF, 10 ug/mL Fab
# β-galactosidase = experiment: monoclonal phage TRF
# Chain of β-galactosidase (P00722 2-1024): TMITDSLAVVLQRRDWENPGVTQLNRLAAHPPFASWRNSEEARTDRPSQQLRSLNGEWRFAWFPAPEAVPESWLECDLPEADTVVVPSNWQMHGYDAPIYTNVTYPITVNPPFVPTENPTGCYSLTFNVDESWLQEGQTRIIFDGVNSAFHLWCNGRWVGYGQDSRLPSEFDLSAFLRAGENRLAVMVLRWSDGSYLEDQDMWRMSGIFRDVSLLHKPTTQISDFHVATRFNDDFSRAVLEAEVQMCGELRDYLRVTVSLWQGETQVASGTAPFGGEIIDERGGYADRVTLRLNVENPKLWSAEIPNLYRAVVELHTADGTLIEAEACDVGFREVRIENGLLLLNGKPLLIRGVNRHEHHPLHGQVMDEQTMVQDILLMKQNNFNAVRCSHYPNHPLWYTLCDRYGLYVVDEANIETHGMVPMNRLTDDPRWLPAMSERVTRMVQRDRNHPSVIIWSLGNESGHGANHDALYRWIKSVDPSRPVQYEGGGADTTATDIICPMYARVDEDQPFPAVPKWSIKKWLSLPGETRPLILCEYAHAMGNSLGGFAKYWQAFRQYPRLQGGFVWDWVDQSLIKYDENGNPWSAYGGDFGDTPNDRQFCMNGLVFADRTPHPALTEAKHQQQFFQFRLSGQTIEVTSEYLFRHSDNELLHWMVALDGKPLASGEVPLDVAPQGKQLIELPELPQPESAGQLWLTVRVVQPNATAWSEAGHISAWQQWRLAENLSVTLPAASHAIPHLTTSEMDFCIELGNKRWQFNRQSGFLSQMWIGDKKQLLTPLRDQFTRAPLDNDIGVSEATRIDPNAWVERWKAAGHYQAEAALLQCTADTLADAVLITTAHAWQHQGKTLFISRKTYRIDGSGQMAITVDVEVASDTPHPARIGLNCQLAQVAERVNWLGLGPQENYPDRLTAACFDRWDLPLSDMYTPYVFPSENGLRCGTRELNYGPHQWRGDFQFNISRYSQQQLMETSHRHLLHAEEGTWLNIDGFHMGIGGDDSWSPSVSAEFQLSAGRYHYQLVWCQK
Binder,TRF signal (trypsin [1]),TRF signal (trypsin [2]),Tryspin binding signal (FU) (trypsin [3]),TRF signal (trypsin [4]),TRF signal (β-galactosidase)
"KB_A01 (scFv, V domains shown) VH: EVQLVESGGGLVRPGGSLRLSCAASGFTFSSYAMSWVRQAPGKGLEWVSAISGSGGSTYYADSVKGRFTISRDNTKNSLYLQMTSLRADDTAFYYCVKDFGPGYGTGWFDYWGPGTLVTVSS VL: YLNWYQQKPGKAPKLLIYAAEVCPRILMRCKQDSDCLAGCVCGPNGFCGGTSGVPSRFSGSRSGTEFTLTISSLQPEDFATYYCQKVDDYPLTFGGGTKVEIKR",2390,16600,20200,55600,
"KB_A06 (scFv, V domains shown) VH: EVQLVESGGGLVRPGGSLRLSCAASGFTFSSYAMSWVRQAPGKGLEWVSAISGSGGSTYYADSVKGRFTISRDNTKNSLYLQMTSLRADDTAFYYCVKDFGPGYGTGWFDYWGPGTLVTVSS VL: AVNWYQQLPGKAPKLLIYAAVRCPRILMRCKQDSDCLAGCVCGPNGFCGTPSGIPERFSGSIDRSTNSASLTISGLKTEDEADYYCQSYDSSNLNWVFGGGTKLTVLG",108000,212000,24400,242000,
"KB_A09 (scFv, V domains shown) VH: EVQLVESGGGLVRPGGSLRLSCAASGFTFSSYAMSWVRQAPGKGLEWVSAISGSGGSTYYADSVKGRFTISRDNTKNSLYLQMTSLRADDTAFYYCVKDFGPGYGTGWFDYWGPGTLVTVSS VL: AVNWYQQLPGKAPKLLIYAAERCPRILMRCKQDSDCLAGCVCGPNGFCGTPSGVPDRFSGSIDTFSNSASLTISGLKTEDEADYYCQSYDSSHHWVFGGGTKLTVLG",21000,84100,57700,161000,
"KB_A11 (scFv, V domains shown) VH: EVQLVESGGGLVRPGGSLRLSCAASGFTFSSYAMSWVRQAPGKGLEWVSAISGSGGSTYYADSVKGRFTISRDNTKNSLYLQMTSLRADDTAFYYCVKDFGPGYGTGWFDYWGPGTLVTVSS VL: YLNWYQQKPGKAPKLLIYAAEICPRILMRCKQDSDCLAGCVCGPNGFCGPSSGIPARFSGSGYGTDFTLTINNIESEDAAYYFCLQHDNFPYTFGQGTKVEIKR",48900,141000,16400,212000,
"KB_A12_B-gal_F02 (scFv, V domains shown) VH: EVQLVESGGGLVRPGGSLRLSCAASGFTFSSYAMSWVRQAPGKGLEWVSAISGSGGSTYYADSVKGRFTISRDNTKNSLYLQMTSLRADDTAFYYCVKDFGPGYGTGWFDYWGPGTLVTVSS VL: AVNWYQQLPGKAPKLLIYAAGRCRTTSTIRRRCKQDSDCLAGCVCGPNGFCGANSGVSDRFSAAKSGTSASLAINGLRSEDEADYYCAAWDDSLNGYVFGTGTKLTVLG",,,,,476000
"KB_A10 (scFv, V domains shown) VH: EVQLVESGGGLVRPGGSLRLSCAASGFTFSSYAMSWVRQAPGKGLEWVSAISGSGGSTYYADSVKGRFTISRDNTKNSLYLQMTSLRADDTAFYYCVKDFGPGYGTGWFDYWGPGTLVTVSS VL: AVNWYQQLPGKAPKLLIYAAGGCPRILMRCKQDSDCLAGCVCGPNGFCGSNSGVPDRFSGSKSGNTASLTISGLQSEDEADYYCAAWDDSLSGVVFGGGTQLTVLG",14600,71900,38800,68700,
"KB_A12_B-gal_G05 (scFv, V domains shown) VH: EVQLVESGGGLVRPGGSLRLSCAASGFTFSSYAMSWVRQAPGKGLEWVSAISGSGGSTYYADSVKGRFTISRDNTKNSLYLQMTSLRADDTAFYYCVKDFGPGYGTGWFDYWGPGTLVTVSS VL: AVNWYQQLPGKAPKLLIYAAGRCLDTVNLRRRCKQDSDCLAGCVCGPNGFCGANSGVSDRFSAAKSGTSASLAINGLRSEDEADYYCAAWDDSLNGYVFGTGTKLTVLG",,,,,529000
"KB_A05 (scFv, V domains shown) VH: EVQLVESGGGLVRPGGSLRLSCAASGFTFSSYAMSWVRQAPGKGLEWVSAISGSGGSTYYADSVKGRFTISRDNTKNSLYLQMTSLRADDTAFYYCVKDFGPGYGTGWFDYWGPGTLVTVSS VL: AVNWYQQLPGKAPKLLIYAADKCPRILMRCKQDSDCLAGCVCGPNGFCGGGSGIPERFSGSKSGTSASLAISGLRSEDEADYYCATWDDNLNGVVFGGGTKLTVLG",46700,65400,121000,218000,
"KB_B02 (scFv, V domains shown) VH: EVQLVESGGGLVRPGGSLRLSCAASGFTFSSYAMSWVRQAPGKGLEWVSAISGSGGSTYYADSVKGRFTISRDNTKNSLYLQMTSLRADDTAFYYCVKDFGPGYGTGWFDYWGPGTLVTVSS VL: AVNWYQQLPGKAPKLLIYAAVGCPRILMRCKQDSDCLAGCVCGPNGFCGTGSGIPERFSGSKSGNTASLTISGLQAEDEGDYYCAAWDDSLSGPVFGGGTKLTVLG",2340,15900,116000,56600,
"KB_A03 (scFv, V domains shown) VH: EVQLVESGGGLVRPGGSLRLSCAASGFTFSSYAMSWVRQAPGKGLEWVSAISGSGGSTYYADSVKGRFTISRDNTKNSLYLQMTSLRADDTAFYYCVKDFGPGYGTGWFDYWGPGTLVTVSS VL: AVNWYQQLPGKAPKLLINAADRCPRILMRCKQDSDCLAGCVCGPNGFCGTNSGVPDRFSGSSSGNTASLTITGAQAEDEADYYCNSRDSSGNNWVFGGGTKVTVLG",,,28700,,
"KB_B01 (scFv, V domains shown) VH: EVQLVESGGGLVRPGGSLRLSCAASGFTFSSYAMSWVRQAPGKGLEWVSAISGSGGSTYYADSVKGRFTISRDNTKNSLYLQMTSLRADDTAFYYCVKDFGPGYGTGWFDYWGPGTLVTVSS VL: AVNWYQQLPGKAPKLLIYAAAGCPRILMRCKQDSDCLAGCVCGPNGFCGTRSGVSDRFSGSKSGTSASLAISGLRSEDEADYYCAAWDDSLRAYVFGTGTKLTVLG",54800,153000,57700,257000,
"KB_B10 (scFv, V domains shown) VH: EVQLVESGGGLVRPGGSLRLSCAASGFTFSSYAMSWVRQAPGKGLEWVSAISGSGGSTYYADSVKGRFTISRDNTKNSLYLQMTSLRADDTAFYYCVKDFGPGYGTGWFDYWGPGTLVTVSS VL: QSVLTQLPSVSEAPRQRVTITCGRAMCPRILMRCKQDSDCLAGCVCGPNGFCGTGNWYQQHPGKAPKLIIFDVSKRPSGVPDRFSASKSGNTASLTISGLQAEDEADYYCNSYTSSNTWVFGGGTQLTVLG",,,9270,,
"KB_A02 (scFv, V domains shown) VH: EVQLVESGGGLVRPGGSLRLSCAASGFTFSSYAMSWVRQAPGKGLEWVSAISGSGGSTYYADSVKGRFTISRDNTKNSLYLQMTSLRADDTAFYYCVKDFGPGYGTGWFDYWGPGTLVTVSS VL: AVNWYQQLPGKAPKLLIYAAAKCPRILMRCKQDSDCLAGCVCGPNGFCGGASGVSDRFSGSIDSSSNSASLTISGLKPEDEGDYYCQSYDSSNRWVFGGGTKVTVLG",93800,221000,183000,255000,

# The remaining lines, values ahead:
TRF signal (trypsin [1]),TRF signal (trypsin [2]),Tryspin binding signal (FU) (trypsin [3]),TRF signal (trypsin [4]),TRF signal (β-galactosidase),Binder
51100,131000,76800,183000,,"KB_C08 (scFv, V domains shown) VH: EVQLVESGGGLVRPGGSLRLSCAASGFTFSSYAMSWVRQAPGKGLEWVSAISGSGGSTYYADSVKGRFTISRDNTKNSLYLQMTSLRADDTAFYYCVKDFGPGYGTGWFDYWGPGTLVTVSS VL: AVNWYQQLPGKAPKLLIYAAAVCPRILMRCKQDSDCLAGCVCGPNGFCGTRSGIPERFSGSKSGTSAFLAISGLRSEDEADYYCAAWDDSLSGVVFGGGTKLTVLG"
,,10300,,,"KB_B11 (scFv, V domains shown) VH: EVQLVESGGGLVRPGGSLRLSCAASGFTFSSYAMSWVRQAPGKGLEWVSAISGSGGSTYYADSVKGRFTISRDNTKNSLYLQMTSLRADDTAFYYCVKDFGPGYGTGWFDYWGPGTLVTVSS VL: TQPPSVSEAPRQRVTITCGSRPCPRILMRCKQDSDCLAGCVCGPNGFCGSHNWYQQLPGSSPTTVIYEDNQRPSGVPDRFSGSIDRSSNSASLTISGLKTEDEADYYCQSYDSSNHRVVFGGGTKLTVLG"
41700,146000,119000,238000,,"KB_C10 (scFv, V domains shown) VH: EVQLVESGGGLVRPGGSLRLSCAASGFTFSSYAMSWVRQAPGKGLEWVSAISGSGGSTYYADSVKGRFTISRDNTKNSLYLQMTSLRADDTAFYYCVKDFGPGYGTGWFDYWGPGTLVTVSS VL: AVNWYQQLPGKAPKLLIYAAGPCPRILMRCKQDSDCLAGCVCGPNGFCGADSGVSDRFSGSKSGTSASLAITGLQAEDEGDYYCAAWDDSLNGLVFGGGTKVTVLG"
,,17400,,,"KB_B12 (scFv, V domains shown) VH: EVQLVESGGGLVRPGGSLRLSCAASGFTFSSYAMSWVRQAPGKGLEWVSAISGSGGSTYYADSVKGRFTISRDNTKNSLYLQMTSLRADDTAFYYCVKDFGPGYGTGWFDYWGPGTLVTVSS VL: TQPPSVSEAPRQRVTITCGERPCPRILMRCKQDSDCLAGCVCGPNGFCGANNWYQQLPGSSPTTVIYEDNQRPSGVPDRFSGSIDSSSNSASLTISGLKTEDEADYYCQSYDSSNQVFGGGTKVTVLG"
153000,247000,43300,276000,,"KB_C07 (scFv, V domains shown) VH: EVQLVESGGGLVRPGGSLRLSCAASGFTFSSYAMSWVRQAPGKGLEWVSAISGSGGSTYYADSVKGRFTISRDNTKNSLYLQMTSLRADDTAFYYCVKDFGPGYGTGWFDYWGPGTLVTVSS VL: AVNWYQQLPGKAPKLLIYAAVGCPRILMRCKQDSDCLAGCVCGPNGFCGSASGVSDRFSGSKSGTSASLAISGLRSEDEADYYCASWDDSLRGYVFGTGTKVTVLG"
46800,205000,89400,289000,,"KB_C09 (scFv, V domains shown) VH: EVQLVESGGGLVRPGGSLRLSCAASGFTFSSYAMSWVRQAPGKGLEWVSAISGSGGSTYYADSVKGRFTISRDNTKNSLYLQMTSLRADDTAFYYCVKDFGPGYGTGWFDYWGPGTLVTVSS VL: AVNWYQQLPGKAPKLLIYAAGRCPRILMRCKQDSDCLAGCVCGPNGFCGGGSGVPDRFSGSIDSSSNSASLTISGLRAEDEADYYCQSYDSSNHWVFGGGTKLTVLG"
